Consider ten molecules from patent US20260250391A1 (NEW YORK UNIVERSITY, published 2026).

For orientation: Kd means the concentration at which binding is half-saturated. A high value points to lower affinity.

Changes are numbered by the printed parent chain.

The target of test [1] is T1, Human ICAM-2 extracellular region (UniProt ID P13598; residues 25-223), C-terminally fused to His6 and … (human, UniProt P13598 25-223, biotinylated with BirA (Avi-tag) when used as selection antigen).
T1 construct: range 25-223; Expressed from EXPI293 cells; also called hICAM-2; not shown: C-terminal His6 and Avi-tags
T1 sequence (looked up): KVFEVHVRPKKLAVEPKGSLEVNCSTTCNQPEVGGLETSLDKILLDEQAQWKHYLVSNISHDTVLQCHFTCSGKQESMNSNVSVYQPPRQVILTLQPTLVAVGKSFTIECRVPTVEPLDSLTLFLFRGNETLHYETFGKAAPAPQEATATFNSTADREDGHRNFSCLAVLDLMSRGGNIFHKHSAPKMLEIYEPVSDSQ
The experiment in a line: BLI (Octet): biotinylated monobody on streptavidin tips, human ICAM-2 in solution; global 1:1 fit without the highest concentration. The protocol: (§1) The four monobody samples identified in Example 1 were produced as purified proteins with N-terminal tags containing His6 and Avi-tag, followed by enzymatic biotinylation using the BirA enzyme. The proteins were immobilized on streptavidin-coated biolayer interferometry (BLI) tips using an Octet instrument (Sartorius) and their interaction with human ICAM-2 was monitored with the instrument (FIG. 1).
FIG. 1 depicts BLI sensorgrams. The global fitting of the 1:1 binding model was performed on the data after excluding the highest concentration sensorgrams, because the association rates in the highest concentration data are too high for accurate fitting. The KD values from the global fitting are shown.

Test [2] concerns the target T2, Pig ICAM-2 extracellular region (UniProt ID Q6VY03; residues 24-250), C-terminally fused to His6 and Avi-tags (pig, UniProt Q6VY03 24-250, Possibly biotinylated on the Avi-tag, as for human ICAM-2 in Example 1; this is not stated for pig. The tag is not included in the letters.).
T2 construct: also called pICAM-2
T2 sequence: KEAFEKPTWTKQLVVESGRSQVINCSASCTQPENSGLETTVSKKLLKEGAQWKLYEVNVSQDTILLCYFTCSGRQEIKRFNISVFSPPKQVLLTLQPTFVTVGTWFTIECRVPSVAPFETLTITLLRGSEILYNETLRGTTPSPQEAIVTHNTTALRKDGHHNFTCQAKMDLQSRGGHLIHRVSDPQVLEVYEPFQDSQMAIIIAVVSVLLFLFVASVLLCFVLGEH
The experiment in a line: BLI (Octet) of the monobody with pig ICAM-2.
Source text: as §1
Biolayer interferometry (BLI) for five of the monobodies (Mb_pICAM2_L1, Mb_pICAM2_L6, Mb_pICAM2_L11, Mb_pICAM2_L14, and Mb_pICAM2_L22) was carried out using the procedures and equipment described above (FIG. 5).
(In BLI a coated tip is dipped into the sample, and binding shifts an interference pattern.)

The target of test [3] is T3, Endogenous human ICAM-2 on the surface of Primary Umbilical Vein Endothelial Cells (HUVEC) (human, UniProt P13598 25-275).
T3 construct: whole, on cells; also called cell surface ICAM-2; endogenous ICAM-2
T3 sequence (looked up): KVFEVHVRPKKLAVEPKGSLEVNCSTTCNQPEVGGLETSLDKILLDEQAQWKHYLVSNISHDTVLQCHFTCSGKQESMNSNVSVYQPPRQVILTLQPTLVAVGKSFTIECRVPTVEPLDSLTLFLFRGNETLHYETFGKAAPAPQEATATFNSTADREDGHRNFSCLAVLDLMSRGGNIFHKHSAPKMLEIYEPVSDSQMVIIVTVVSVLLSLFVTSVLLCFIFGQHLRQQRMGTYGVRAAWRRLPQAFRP
The experiment in a line: Flow cytometry (MFI) of negative control monobody bound to streptavidin DyLight 650 on HUVEC; concentration as monomer [panel B]. The protocol:
Whether Mb_ICAM2_S40 detected endogenous ICAM-2 molecules expressed on the surface of human cells was tested. […] The expression of ICAM-2 in HUVEC but not in Expi293 was confirmed using a commercially available anti-hICAM-2 antibody (FIG. 2D).
On the technique in general: Flow cytometry measures light scatter and fluorescence of single cells or particles in a stream.

B1: Mb_ICAM2_S40 (designed binder)
chain: VSSVPTKLEVVAATPTSLLISWDAPAVTVLYYFITYGETGGNSPVQEFAVPGSKSTATISGLKPGVDYTITVYALSSKWRYSPISINYRT
modifications: biotin on the Avi-tag (enzymatic biotinylation with BirA) in the BLI and flow cytometry assays
notes: Monobody (FN3 domain from human 10FN3); Purified form carries N-terminal His6 and Avi tags; not shown: N-terminal tags containing His6 and Avi-tag
Consider B1, for which, in test [1], the “apparent Kd (pooled screen)” value stood at 14 nM.

B2: Mb_ICAM2_S32 (designed binder)
chain: B1 chain with L75I, S76N, S77Q, K78Y, R80K
modifications: biotin on the Avi-tag (enzymatic biotinylation with BirA) in the BLI assay
notes: as for B1
In test [1], B2 came in with a Kd of 5.9 nM.

B3: Mb_ICAM2_S36 (designed binder)
chain: B1 chain with G41H, N42G, P44A, V45Y, S76W, S77Y, W79G, R80I, Y81T
modifications: biotin on the Avi-tag (enzymatic biotinylation with BirA) in the BLI assay
notes: as for B1
Molecule B3 gave a Kd in test [1] of 4.5 nM.

B4: Mb_pICAM2_L1 (designed binder)
chain: VSSVPTKLEVVAATPTSLLISWDAGYWSSVAYYRITYGETGGNSPVQEFTVPGSSSTATISGLKPGVDYTITVYAMTSGYSWYSPISINYRT
notes: Identified by yeast display
On to B4, for which the Kd in test [2] turned out to be 19.3 nM.

B5: Mb_pICAM2_L6 (designed binder)
chain: B4 chain with G53S, M76Q, G79M
notes: Identified by yeast display
Molecule B5 showed a Kd in test [2] of 14 nM.

B6: Mb_pICAM2_L22 (designed binder)
chain: B4 chain with S56Y, M76K, G79D
notes: Identified by yeast display
Molecule B6 yielded a Kd in test [2] of 16.8 nM.

B7: Mb_pICAM2_L11 (designed binder)
chain: B4 chain with G53S
notes: Identified by yeast display
In the case of B7, the Kd in test [2] turned out to be 12.1 nM.

B8: Mb_pICAM2_L14 (designed binder)
chain: B4 chain with A31S, S56Y, M76Q, G79Y
notes: Identified by yeast display
In turn, B8 came in with a Kd in test [2] of 11.8 nM.

B9: Mb_ICAM2_S38 (designed binder)
chain: VSSVPTKLEVVAATPTSLLISWDAPAVTVLYYFITYGETGPASYGAQEFAVPGSKSTATISGLKPGVDYTITVYAISNKWKYSPISINYRT
modifications: biotin on the Avi-tag (enzymatic biotinylation with BirA) in the BLI assay
notes: as for B1
B9: in test [1], binding was characterised by a dissociation constant (Kd) of 26 nM.

B10: Negative control monobody (SEQ ID NO: 34) (designed binder)
chain: VSSVPTKLEVVAATPTSLLISWDASSSSVSYYRITYGETGGNSPVQEFTVPGSKSTATISGLKPGVDYTITVYASSSSSSSSSSSKPISINYRT
notes: Tested conjugated to streptavidin DyLight 650; The tags and biotinylation of this control are not described
Take B10: the binding result in test [3] is “no binding (tested: 200 nM)”.
